From US20250188180A1 (BIOINTRON BIOLOGICAL, published 2025)
Residue numbers refer to the chain shown, from its start.

B1: ANb24-Alpaca1-4M-2SP-149 (Fc fusion)
chain: EVQLVESGGGLVQPGGSLRLSCTASGSTLDIYAIGWFRQAPGKEREGVSCITGSGSSTRYAHSVTGRFTISRDNAKNTVFLQMNSLKPEDTAVYYCAKARLLSRLCVPSPDFESWGQGTQVTVSS
notes: also called ANb24-A1-4M-2SP-149; ANb24-Alpacal-4M-2SP-149; not shown: Fc joined to the VHH by overlap PCR
B2: ANb24-Alpaca1-4M-2SP-180 (Fc fusion)
chain: B1 chain with E1Q, V2P, L4F, H62D, E89D, R104M
notes: also called ANb24-A1-4M-2SP-180; ANb24-Abpacal-4M-2SP-180; not shown: Fc joined to the VHH by overlap PCR
B3: ANb24-Alpaca1-4M-2SP-273 (Fc fusion)
chain: EVQLVESGGGLVQPGGSLRLSCAASGSTLDYYAIGWFRQAPGKEREGVSCISGSGGSTRYADSVTGRFTISKDSAKNTVYLEMNSLKPEDTAVYYCARARLLSRLCVPSADFDSWGQGTQVTVSS
notes: also called ANb24-A1-4M-2SP-273; ANb24-Alpacal-4M-2SP-273; not shown: Fc joined to the VHH by overlap PCR
B4: ANb24-Alpaca1-4M-2SP-332 (Fc fusion)
chain: QVQLVESGGGLVQPGGSLRLSCAASGSTLASYAIGWFRQAPGKEREGISCISGSGGSTRAADSVQGRFTISRDNAKNTVSLQMNSLKPEDTAIYYCAKVRLLSRGCVPSPDFDSWGQGTQVTVSS
notes: also called ANb24-A1-4M-2SP-332; ANb24-Alpacal-4M-2SP-332; not shown: Fc joined to the VHH by overlap PCR
B5: ANb24-Alpaca1-4M-2SP-335 (Fc fusion)
chain: QPQFVESGGGLVQPGGTLRLSCAASGFTFEYYTIGWFRQTPGKEREGVSCITAAGVPRNADSAKGRFTISRDNAKNMVYLQMNNLKPEDTAVYYCAQARLLSTSCAPMNDYWGQGTQVTVSS
notes: also called ANb24-A1-4M-2SP-335; ANb24-Alpacal-4M-2SP-335; not shown: Fc joined to the VHH by overlap PCR
B6: ANb24-Alpaca1-4M-2SP-317 (Fc fusion)
chain: QLQLVESGGDLVQPGGSLRLSCTASGHTLEYYAIGWFRQAPGKEREGVSCIIGSGGSTRYFDSVLGRFTISRDNAKNTVFLQMNSLKPEDTAVYYCAKVRLLSRLCVPSSDFDSWGQGTQVTVSS
notes: also called ANb24-A1-4M-2SP-317; ANb24-Alpacal-4M-2SP-317; not shown: Fc joined to the VHH by overlap PCR
B7: ANb24-Alpaca1-4M-2SP-175 (Fc fusion)
chain: QPHFVESGGGLVQPGGSLRLSCVASGFTFEYVPIGWFRQAPGKEREGVSCITPTGITRNADSVKGRFTISRDNAKNTVYLQLNSLKPEDTAVYYCAKARLLSTSCVQTSDARGQGTQVTVSS
notes: also called ANb24-A1-4M-2SP-175; ANb24-Alpacal-4M-2SP-175; not shown: Fc joined to the VHH by overlap PCR
B8: ANb24-Alpaca1-4M-2SP-226 (Fc fusion)
chain: QLQLVESGGGLVQPGGTLRLSCAASGVTLEYYSIGWFRQSPGKEREGVSCISGGGVQRYADSAEGRFAISRDNAKNMVYLQMNNLEPEDTAVYYCARARLLMRGCAPMDNYWGQGTQVTVSS
notes: also called ANb24-A1-4M-2SP-226; ANb24-Alpacal-4M-2SP-226; not shown: Fc joined to the VHH by overlap PCR

molecular target: CD40 antigen on cells (cell-based binding assay) (UniProt P25942); experiment: cell-based binding assay on CD40 cells
Sequence (P25942 21-277 limits assumed): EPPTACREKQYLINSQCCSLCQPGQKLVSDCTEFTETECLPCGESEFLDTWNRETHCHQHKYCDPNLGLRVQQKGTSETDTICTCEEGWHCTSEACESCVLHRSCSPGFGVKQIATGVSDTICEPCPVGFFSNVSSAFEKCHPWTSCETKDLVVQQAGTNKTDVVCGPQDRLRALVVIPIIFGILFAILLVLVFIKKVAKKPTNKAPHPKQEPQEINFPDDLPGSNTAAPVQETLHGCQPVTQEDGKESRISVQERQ

Row | X Mean | Molecule
1 | 10700 | anti-CD40/APX005M (control antibody)

molecular target: T1, CD40 antigen on cells (cell-based binding assay) (UniProt P25942 21-277, limits assumed); experiment: cell-based binding assay, 293F culture supernatant
T1 construct: whole, on cells; the cells are not described
T1 sequence (P25942 21-277 limits assumed): as above

Row | X Mean | Molecule
2 | 11500 | B1
3 | 10800 | B2
4 | 4420 | B3
5 | 4080 | B4
6 | 8960 | B5
7 | 8970 | B6
8 | 10500 | B7
9 | 10700 | B8
